Measured values: US20230189818A1, “RNA-BASED CONTROL OF BOTRYTIS” (priority 2021, published 2023)

B1: GS413: dsRNA trigger targeting B. cinerea NBP35 (XM_001552213.2); trigger SEQ ID NO 15, RNA 27, reverse complement 39 (nucleic acid, listed as Botrytis cinerea)
sense: GCAAAAUUCCAUUGUUGCUUUGUAAACAUCCAUCCUACGACUUUAUUAUCUCAUCGAUCAUCCCACAAUUUACAUUUUCCAUUUUACACUCAAUAAACAAUUGAAAAACAAUAUUCUGAGUUGGUCGCAGUAAAUCAUGGCUCCAUCUCUUGAGGAAAGGCCCGAUGCUGUGCAAGACGUCCUCUCAAAUCCUCUCAAAAAUGCUCCCAAACUUGUCGCCCCAGAACCUGAACAUUGUCCCGGUCCAGAAUCCGAAGCGGCGGGAAAGGCAGAUUCUUGCGCGGGCUGUCCAAACCAAGCCAUAUGCGCAUCCGCACCCAAAGGUCCCGAUCCAGAUAUUCCAGCUAUAACUGCACGUCUUGCUGGUAUCAAACAUAAAGUCUUAAUUCUGUCGGGGAAAGGUGGUGUAGGAAAAAGCACAUUUACAACUUUACUUGCACAUGCCUUCGCAACAAAUGAGGACAACACAGUAGGAAUCAU
antisense: AUGAUUCCUACUGUGUUGUCCUCAUUUGUUGCGAAGGCAUGUGCAAGUAAAGUUGUAAAUGUGCUUUUUCCUACACCACCUUUCCCCGACAGAAUUAAGACUUUAUGUUUGAUACCAGCAAGACGUGCAGUUAUAGCUGGAAUAUCUGGAUCGGGACCUUUGGGUGCGGAUGCGCAUAUGGCUUGGUUUGGACAGCCCGCGCAAGAAUCUGCCUUUCCCGCCGCUUCGGAUUCUGGACCGGGACAAUGUUCAGGUUCUGGGGCGACAAGUUUGGGAGCAUUUUUGAGAGGAUUUGAGAGGACGUCUUGCACAGCAUCGGGCCUUUCCUCAAGAGAUGGAGCCAUGAUUUACUGCGACCAACUCAGAAUAUUGUUUUUCAAUUGUUUAUUGAGUGUAAAAUGGAAAAUGUAAAUUGUGGGAUGAUCGAUGAGAUAAUAAAGUCGUAGGAUGGAUGUUUACAAAGCAACAAUGGAAUUUUGC
B2: GS659: dsRNA trigger targeting B. cinerea SDH (XM_001548300.2_200_pos_342); trigger SEQ ID NO 16, RNA 28, reverse complement 40 (nucleic acid, listed as Botrytis cinerea)
sense: UCAGAUGCGAACCAUGGCAUCAGUCGACAGCUCAGUACCUGAAAGUCCUACCGUUUCUCCAUCCCGUCCUGUCGAAUCUGCUUCCAAGACCUCCACUGUCAAGGAACCUGCUGCCGACUCGGAGUCUUUGAUCAAGACAUUCAACAUUUACAGAUGGAACCCAGAUGAGCCAACCAGCAAGCCCCGCAUGCAAUCUUACA
antisense: UGUAAGAUUGCAUGCGGGGCUUGCUGGUUGGCUCAUCUGGGUUCCAUCUGUAAAUGUUGAAUGUCUUGAUCAAAGACUCCGAGUCGGCAGCAGGUUCCUUGACAGUGGAGGUCUUGGAAGCAGAUUCGACAGGACGGGAUGGAGAAACGGUAGGACUUUCAGGUACUGAGCUGUCGACUGAUGCCAUGGUUCGCAUCUGA

Tests used:
Botrytis cinerea conidia = test: In vitro liquid-based assay (fungal biomass, 96-well plates, Cytation 5); type: cell-based; details: co-incubated with conidia for three days, vs untreated control
Experimental: Fungal culture. The Botrytis cinerea was plated each week the culture onto Malt Extract Agar (MEA) from long-term storage on silica stored at 4° C. Three pellets of silica were added to the center of a MEA agar plate and grown at room temperature without parafilm/tape seal for 10-14 days before use; a culture 12 days old was typically used.
Spore and media preparation. A pure culture of B. cinerea was flooded with a 0.01% Triton x-100 solution and conidia scraped free with a sterile hockey stick. The suspension was transferred to two, 1.5 mL centrifuge tubes and centrifuged at 8000 rpm for two minutes. The supernatant was discarded, pelleted spores washed twice with sterile water, then resuspended in sterile water. Conidia were quantified using a hemacytometer and diluted to a final concentration of 5000 conidia/mL stock. A stock solution of 1.25× minimal media was prepared for the assay setup using the components below. Once the stock solution was made, the pH was adjusted to 6.0 using NaOH or KOH, then filter sterilized through a 0.2 um filter tower and vacuum pump and stored at 4° C. The Kao & Michayluk Vitamins (100×) is a filter sterilized stock solution. The stock contains vitamins and amino acids as described by Kao & Michayluk. After filter sterilization, 20 mg of 4-Aminobenzoic acid in 100 ml of solution was added.
Experimental setup. Screening assays were setup in 96-well plates with conidia co-incubated with treatments (controls and dsRNAs) for three days before determining fungal biomass. Each treatment was replicated eight times within a single plate. In each well consisted of 12.5 μl of conidia suspension, 25 μl of the treatment, 12.5 μl of sterile deionized water, and 200 μl of minimal media. Each plate was covered with a breath right film and placed in the percival growth chamber at 23° C. on the shaking platform set to 120 RPM with 24-hour lighting. Plates were incubated for 72 hours before determining fungal growth.
Reading assay plate. Fungal biomass was determined by reading plates with the Cytation 5 machine. The program was set to compile 8 photo slices per well under brightfield microscopy with a 2.5× lens to measure biomass.
Data analysis. Analysis will automatically run on Cytation5 to determine final biomass.
Results are shown in Table 1B representing the average reduction in biomass vs. control for tested sequences across several runs described above.

[1] = system: Botrytis cinerea B05.10 isolate; test: Greenhouse whole plant assay (tomato 'Lanai', disease severity); type: in vivo; details: final rating day (rating #3)
Experimental: Plant Tissue: Tomato seedlings, variety “Lanai”, were seeded then thinned to one plant per pot in an 18 cell tray. […] Plants were grown at a 23° C./17° C. day/night temperature with 10 hours of light each 24-hour period. The RH was ambient and plants were fertilized two times a day every day except for Sunday when they received only water. Plants were grown using Fafard brand medium (70-80% sphagnum peat moss, perlite, vermiculite, dolomite limestone and watering agent) for the entire experiment.
Fungal culture. A Botrytis cinerea B05.10 isolate was maintained, and spores were harvested as previously described for detached leaf assays, except a grape juice additive was not used for inoculum preparation.
Treatment of plants. Whole tomato plants were treated ˜24 hours before inoculation using the spray booth. A 0.07% Silwet L-77 solution was used as a spreader and added for a 0.07% final volume in water (Silwet L-77 brand Phyto Technology Laboratories, S7777 Lot #14D7777001 F). The spray booth deck was set to 20″ above the plant canopy and a twinjet 8002EVS nozzle with 100 mesh filter placed into the spray mechanism. The spray boom was calibrated before treatment application with specs as follows: 50 GPA rate, 1.25 MPH speed, 6′ spray length, single pass, and at 45 psi to get a catch of 133 mL in 10 seconds (+/−6 mL). Each treatment was replicated ten times for each experimental run.
Inoculation. Plants were inoculated using a mist-o-matic applicator, which is pressurized by manual pumping. The inoculum suspension was poured into the mist-o-matic immediately before inoculation in the GH space. The containers were only filled half-way and inoculum was applied evenly to the surface of all foliage with even coverage.
Incubation. Plants were incubated inside of a 40″ tall humidity chamber supported by PVC pipe and covered in 3M translucent plastic. A humidifier was inside the chamber and set to low and continuous humidity (filled with tap water). The temperature was D:24-20° C./N:20-18° C. with 15 hours of light, of which 9 hours was with supplemental lighting. RH was ambient and watering occurred everyday by sub-irrigation with the bench being flooded for 10 minutes before draining.
Rating. Tomato plants were rated three times during the two-week experiment with rating starting four days post-inoculation and occurring every three to four days after the initial rating date. Plants were rated for the number of lesions and disease severity, which is the percentage of the plant that was symptomatic including necrotic lesions, pathogen sporulation, and chlorosis.
Data analysis. […] Percent disease severity (%DS) was determined by the percent area of the tomato foliage with symptoms including lesions, chlorosis, necrosis, and wilting. Disease severity was rated at three dates (Rating #) over the 12-day test period. Treatments were compared to the untreated, inoculated control and a chemical standard. Statistical analysis was done using SAS JMP version 13.2.1 with treatments compared to the untreated, inoculated control and a chemical standard using Tukey-Kramer and student's T tests.

[2] = system: Botrytis cinerea isolate (B05.10); test: Detached leaf assay (tomato leaflets, lesion size); type: in vivo; details: five days post inoculation, vs untreated inoculated control
Experimental: Plant tissue. Tomato plants, variety Brandywine, were grown in the greenhouse for 3 weeks before harvesting the first true leaves for assays. Nodes 2-4 were prioritized for harvest and only lateral leaflets were used for assays. Leaflets of approximately the same size were used each week and were randomized among treatments. Detached leaflets were immediately brought into the lab for treatment and used within 4 hours of harvest. Detached leaflets were kept at 4° C. until they were treated and placed onto a 1% water agar medium for incubation.
Fungal culture. A Botrytis cinerea isolate (B05.10) was preserved on silica for long-term storage and pulled from these tubes stored at 4° C. for growth on a nutritive medium. Three pellets of silica were added to the center of a Malt Extract Agar (MEA) agar plate and grown at room temperature without parafilm/tape seal for ˜14 days, or until abundant conidia formation, before use.
Treatment of leaflets. Leaflets were treated 24 hours before inoculation and applied using an atomizer to get a fine mist of small droplets entirely covering the leaflet. Silwet L-77 was used as a spreader and added for a 0.03% final concentration (Silwet L-77 brand Phyto Technology Laboratories, S7777 Lot #14D7777001 F). The inoculated control was sprayed with the same volume of sterile DI water with Silwet L-77 in the absence of fungicide or experimental material. Leaflets were spray treated by laying them on a paper towel and holding the atomizer ˜6″ away from the leaflet for applications. Treated leaves were placed on a 1% water agar (10 g Bacto Agar, Difco, in 1 L deionized water, sterilized for 30 minutes at 121° C. and poured when reached a temp of 55° C. into 100×20 mm Petri dishes), with lids of the Petri dishes placed back on before putting Petri dishes under plastic bags to maintain humidity before inoculation the following day. Petri dishes of treated leaflets were left on the lab counter until the following day. Each treatment was replicated ten times with each replicate being a single treated leaflet with two inoculation sites, one on each side of the leaf midvein.
Inoculation. The conidial suspension was prepared by pouring a 7% white grape juice solution onto the culture plate, then scraping the plate with a sterile spatula to dislodge the spores and mycelia. The grape juice solution was prepared by mixing Welch's brand organic white grape juice into sterile deionized water. After dislodging the spores and mycelia of the culture, the suspension was poured through two layers of cheesecloth to remove fungal mycelia and catch the conidial suspension in a clean 50 mL conical tube. Approximately 3 uL of TWEEN 20 was added to conidial suspension to prevent sticking to conical tube. The spore concentration was determined using a Neubauer Improved hemocytometer and inoculum was diluted with more 7% grape juice until a spore concentration of 1×10^5 conidia/mL was reached. Inoculum was used to inoculate host tissue within 2 hours of preparation. Each tomato leaflet was inoculated twice, with inoculation sites placed one per side of the leaflet midvein. A 10 μL volume of spore suspension was placed at each inoculation site using a repeater pipette. Special care was taken not to touch the tip to leaflet surface to avoid contamination between treatments.
Incubation. Petri dishes were placed on lunch trays 6 plates high and moved to an incubator. The incubator was humidity controlled and holds at ˜75% relative humidity. The incubator was kept on 12/12 light/dark days and is set to a temperature of 23° C.
Rating. Measurements were taken at five days post inoculation (DPI). Each lesion that developed was measured using electronic calipers in 2 directions perpendicular to each other to help determine lesion diameter.
Data analysis. Data was analyzed using the SAS JMP statistical program (version 13.2.1) with comparisons made to the untreated, inoculated control. […]

Molecule | Average % Reduction in Biomass (Botrytis cinerea conidia; 25 ppm dsRNA) | Average % Reduction in Biomass (Botrytis cinerea conidia; 150 ppm dsRNA) | % control ([1]; 8 g ai/ha, two runs, three-week-old 'Lanai' tomato plant) | % control ([1]; 25 g ai/ha, two runs, three-week-old 'Lanai' tomato plant) | Average % Reduction in Lesion Size ([2]; 30 ppm) | Average % Reduction in Lesion Size ([2]; 50 ppm) | % control ([1]; 25 g ai/ha, three runs, four-week-old 'Lanai' tomato plant)
B1 | 14% | 53% | 34% | 26% | 35.58% | 20.66% | 
B2 | 12% | 28% |  |  | 21.31% | 19.19% | 29%
